From PMC10716038, “Talin and kindlin use integrin tail allostery and direct binding to activate integrins” (Nature Structural & Molecular Biology, 2023) come the findings set out here.

As a reminder, the Kd is the free concentration of one partner at which half of the binding sites on the other are occupied at equilibrium, for simple one-to-one binding. Higher therefore signals a looser complex.

No end group written: not given here.

Common to all, as to test: MST; unlabelled protein titrated to 50-200 nM ATTO 488-labelled β-CT peptide, no third protein; 20 mM Tris pH 7.5, 200 mM NaCl, 1 mM TCEP, 0.05% Tween-20; Kd of individual titrations (in S0002 mean and sd, n = 2)
Common to all, as to conditions: both partners purified

In one assay the target is T1, THD1 K402A (UniProt P26039 1-405, K402A).
T1 construct: talin-1 (TLN1) head domain, residues 1-405, K402A; source: E. coli (DE3) Rosetta 2, purified (IMAC, SEC); not shown: His10-SUMO, N-terminal, cleaved
T1 sequence (P26039 1-405 K402A): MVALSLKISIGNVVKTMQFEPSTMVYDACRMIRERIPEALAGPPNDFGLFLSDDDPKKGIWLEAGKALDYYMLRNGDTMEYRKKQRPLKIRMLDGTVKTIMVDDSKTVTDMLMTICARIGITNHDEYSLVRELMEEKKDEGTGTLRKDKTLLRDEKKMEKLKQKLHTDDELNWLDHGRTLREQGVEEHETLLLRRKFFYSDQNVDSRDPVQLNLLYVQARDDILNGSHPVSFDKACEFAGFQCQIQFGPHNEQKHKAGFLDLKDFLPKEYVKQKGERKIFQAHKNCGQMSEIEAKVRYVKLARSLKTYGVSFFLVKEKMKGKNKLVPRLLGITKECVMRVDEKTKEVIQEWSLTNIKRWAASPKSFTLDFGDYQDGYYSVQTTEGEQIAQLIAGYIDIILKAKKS

A further assay deals with T2, THD1 I396A (UniProt P26039 1-405, I396A).
T2 construct: talin-1 (TLN1) head domain, residues 1-405, I396A; source: E. coli (DE3) Rosetta 2, purified (IMAC, SEC); not shown: His10-SUMO, N-terminal, cleaved
T2 sequence (P26039 1-405 I396A): as the sequence (P26039 1-405 K402A) above, with I396A, A402K counted along it

The target of a further assay is T3, THD1 Δ401-405 (UniProt P26039 1-405, Δ401-405).
T3 construct: source: E. coli (DE3) Rosetta 2, purified (IMAC, SEC); not shown: His10-SUMO, N-terminal, cleaved
T3 sequence (P26039 1-400, stated change not applied): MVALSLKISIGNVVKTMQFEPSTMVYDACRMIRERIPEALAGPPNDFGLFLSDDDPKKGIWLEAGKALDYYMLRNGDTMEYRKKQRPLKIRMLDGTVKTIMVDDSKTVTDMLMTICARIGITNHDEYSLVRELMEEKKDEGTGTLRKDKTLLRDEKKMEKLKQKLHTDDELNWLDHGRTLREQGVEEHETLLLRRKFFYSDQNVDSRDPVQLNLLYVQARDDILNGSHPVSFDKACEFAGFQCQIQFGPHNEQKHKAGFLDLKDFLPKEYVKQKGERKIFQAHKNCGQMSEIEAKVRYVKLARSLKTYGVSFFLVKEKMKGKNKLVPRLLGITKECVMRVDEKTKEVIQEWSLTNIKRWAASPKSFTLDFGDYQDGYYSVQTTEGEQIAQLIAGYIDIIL

A further assay has as its target T4, THD1 K404A (UniProt P26039 1-405, K404A).
T4 construct: talin-1 (TLN1) head domain, residues 1-405, K404A; source: E. coli (DE3) Rosetta 2, purified (IMAC, SEC); not shown: His10-SUMO, N-terminal, cleaved

In the next assay the target is T5, THD1 K403E (UniProt P26039 1-405, K403E).
T5 construct: talin-1 (TLN1) head domain, residues 1-405, K403E; source: E. coli (DE3) Rosetta 2, purified (IMAC, SEC); not shown: His10-SUMO, N-terminal, cleaved
T5 sequence (P26039 1-405 K403E): as the sequence (P26039 1-405 K402A) above, with A402K, K403E counted along it

In a further assay the target is T6, THD1 I399A (UniProt P26039 1-405, I399A).
T6 construct: talin-1 (TLN1) head domain, residues 1-405, I399A; source: E. coli (DE3) Rosetta 2, purified (IMAC, SEC); not shown: His10-SUMO, N-terminal, cleaved
T6 sequence (P26039 1-405 I399A): as the sequence (P26039 1-405 K402A) above, with I399A, A402K counted along it

Another assay deals with T7, THD1 K401A (UniProt P26039 1-405, K401A).
T7 construct: talin-1 (TLN1) head domain, residues 1-405, K401A; source: E. coli (DE3) Rosetta 2, purified (IMAC, SEC); not shown: His10-SUMO, N-terminal, cleaved
T7 sequence (P26039 1-405 K401A): as the sequence (P26039 1-405 K402A) above, with K401A, A402K counted along it

For another assay, the target named is T8, THD1 Y395A (UniProt P26039 1-405, Y395A).
T8 construct: talin-1 (TLN1) head domain, residues 1-405, Y395A; source: E. coli (DE3) Rosetta 2, purified (IMAC, SEC); not shown: His10-SUMO, N-terminal, cleaved
T8 sequence (P26039 1-405 Y395A): as the sequence (P26039 1-405 K402A) above, with Y395A, A402K counted along it

For assay [1], the target named is T9, talin-1 head domain (THD1) (UniProt P26039 1-405).
T9 construct: talin-1 (TLN1) head domain (THD), residues 1-405; murine TLN1 cDNA is named only for the cell lines; also called WT; source: E. coli (DE3) Rosetta 2, purified (IMAC, SEC); not shown: His10-SUMO, N-terminal, cleaved
T9 sequence (P26039 1-405): as the sequence (P26039 1-405 K402A) above, with A402K counted along it

For a further assay, the target named is T10, THD1 L400A (UniProt P26039 1-405, L400A).
T10 construct: talin-1 (TLN1) head domain, residues 1-405, L400A; source: E. coli (DE3) Rosetta 2, purified (IMAC, SEC); not shown: His10-SUMO, N-terminal, cleaved
T10 sequence (P26039 1-405 L400A): as the sequence (P26039 1-405 K402A) above, with L400A, A402K counted along it

In the next assay the target is T11, THD1 K403A (UniProt P26039 1-405, K403A).
T11 construct: talin-1 (TLN1) head domain, residues 1-405, K403A; source: E. coli (DE3) Rosetta 2, purified (IMAC, SEC); not shown: His10-SUMO, N-terminal, cleaved
T11 sequence (P26039 1-405 K403A): as the sequence (P26039 1-405 K402A) above, with A402K, K403A counted along it

T4 sequence (P26039 1-405 K404A): as the sequence (P26039 1-405 K402A) above, with A402K, K404A counted along it

B1: ATTO 488-labeled integrin β3 cytoplasmic tail (488–β3-CT) (peptide, UniProt O54890 741-787, looked up)
peptide: {ATTO 488}-KLLITIHDRKEFAKFEEERARAKWDTANNPLYKEATSTFTNITYRGT
notes: integrin β3 cytoplasmic tail (β3-CT); source: synthetic peptide (MPIB Core Facility)
Consider B1, for which the Kd with THD1 K402A amounted to 45 µM; with THD1 I396A, 579 µM; with THD1 Δ401-405 it was 250 µM; with THD1 K404A it was 90.1 µM; with THD1 K403E, 60.9 µM; in the assay with THD1 I399A it was 55.2 µM. The dissociation constant Kd with THD1 K401A worked out at 82.5 µM; in the assay with THD1 Y395A, 27.7 µM; in assay [1] it was 105 µM; with THD1 L400A, 190 µM; with THD1 K403A it was 68.1 µM.
